# Measured values published in patent publication US20220235344A1, “TRYPSIN VARIANTS WITH IMPROVED ENZYMATIC PROPERTIES” (BIOPHARMA TRANSLATIONSINSTITUT DESSAU FORSCHUNGS GMBH, priority 2018, published 2022).
# “And” between values parts separate entries of the source, which are not always exact repeats. Identical values can stand only once.
# T1: Bz-PGGYRAHAG-OH (acyl donor) / H-RAHAK-OH (acyl acceptor) (Rattus norvegicus, UniProt P00763, D194K/K66E/Y45H/Y65H)
# T1 construct: monomeric enzyme species (about 24 kDa); made in house; host or cells: Pichia pastoris X-33 (pPICZalphaA, secreted)
# T1 sequence (P00763 24-246 Y45H/Y65H/K66E/D194K): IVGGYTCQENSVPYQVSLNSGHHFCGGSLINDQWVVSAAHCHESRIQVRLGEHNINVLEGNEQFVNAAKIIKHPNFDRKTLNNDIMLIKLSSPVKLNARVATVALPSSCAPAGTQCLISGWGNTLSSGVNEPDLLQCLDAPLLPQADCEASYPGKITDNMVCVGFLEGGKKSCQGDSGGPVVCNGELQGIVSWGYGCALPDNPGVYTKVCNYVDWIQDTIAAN
# T2: Bz-PGGYRAHAG-OH (acyl donor) / H-RAHAK(DNP)-OH (acyl acceptor) (Rattus norvegicus, UniProt P00763, D194K/K66E/Y45H/Y65H)
# T2 construct: made in house; host or cells: Pichia pastoris X-33
# T2 sequence (P00763 24-246 Y45H/Y65H/K66E/D194K): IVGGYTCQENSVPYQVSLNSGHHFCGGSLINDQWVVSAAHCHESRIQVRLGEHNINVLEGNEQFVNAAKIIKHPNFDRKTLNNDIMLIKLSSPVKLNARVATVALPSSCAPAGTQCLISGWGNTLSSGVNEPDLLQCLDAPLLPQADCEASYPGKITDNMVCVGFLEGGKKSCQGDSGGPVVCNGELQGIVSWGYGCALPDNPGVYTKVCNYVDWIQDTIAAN
# Tests used:
# Assay type in all cases: biochemical
# [1] = molecular target: T1, Bz-PGGYRAHAG-OH (acyl donor) / H-RAHAK-OH (acyl acceptor); test: Model transamidation at high and low substrate concentrations, Trypsiligase II; conditions: for product yield (%) / kcat, AL^app (mkat/mol) / kcat, AL^app/kcat, HL^app / kcat, HL^app (mkat/mol): 0.1 mM ZnCl2
# Experimental: (§1) Model transamidation reactions were performed in a solution containing 15 to 250 μM acyl donor, 2 eq. of the corresponding acyl acceptor, varying concentrations of trypsin variant, 100 mM HEPES/NaOH pH 7.8, ±0.1 mM ZnC12, 100 mM NaCl, 10 mM CaCl2) at 30° C. Acyl donor and acyl acceptor had the same amino acids in P1′-P3′ position, e.g. Bz-[…]+H-RAHAK-OH or Bz-[…]+H-RKKAK-OH. Variations are indicated. The acyl acceptor could be equipped with a 2,4-Dinitrophenyl group (DNP) at the side chain of the terminal lysine, e.g. H-RAHAK(DNP)-OH or H-RKKAK(DNP)-OH. The reactions were started by the addition of enzyme. To record the time course of product formation and/or for kinetic evaluation of the reaction several aliquots of the reaction mixture were quenched with 25% (v/v) acetic acid at distinct time points within up to 4 hours. The composition of the reaction mixture was analyzed by UPCL with method I or II, depending on the absence (method 1) or presence (method II) of a 2,4-dinitrophenyl group within the acyl acceptor (see example 1). Measurements were performed as duplicates and errors were less than 5%.
# (§2) The suitability of variant A2C8 and K7F11 as transamidases was further investigated in comparison to the native Trypsiligase II. Therefore the enzymatic parameters for the catalyzed transamidation reaction were determined by a model transamidation reaction using peptide substrates with the preferred recognition motive. In addition the model transamidation reaction was performed at high (250 μM) and low (15 μM) substrate concentrations to check, whether the new biocatalysts could also efficiently catalyze the desired reaction at low substrate concentration, which is a crucial requirement for the modification of therapeutic proteins. […] It was assumed that an improved transamidation activity is reached by introducing mutations which improve the affinity of the biocatalyst for the nucleophilic peptide and/or reduce its hydrolysis activity. Therefore corresponding experimental data describing both parameters for the native Trypsiligase II as well as variant A2C8 were determined.
# [2] = molecular target: T2, Bz-PGGYRAHAG-OH (acyl donor) / H-RAHAK(DNP)-OH (acyl acceptor); test: Maximum product yield of transamidation (Table 7); conditions: Zinc ions (100 μM): yes; two equivalents of acyl acceptor and 250 μM acyl donor
# Experimental: as §1
# [3] = test system: Bz-PGGYRKKAG-OH (acyl donor) / H-RKKAK-OH (acyl acceptor); test: Model transamidation at high and low substrate concentrations, A2C8 and K7F11; conditions: for product yield (%) / kcat, AL^app (mkat/mol) / kcat, AL^app/kcat, HL^app / kcat, HL^app (mkat/mol): no ZnCl2
# Experimental: as §1, §2
# [4] = test system: Bz-PGGXaaXaaXaaXaaAG-OH (acyl donor) / H-XaaXaaXaaAK(DNP)-OH (acyl acceptor); test: Substrate specificity of variants (FIG. 2, FIG. 4)
# Experimental: FIG. 2: Substrate specificity data of chosen variants identified during phage-display selection and screening out of Trypsiligase II-library. 100 μM acyl donor (Bz-PGGXaaXaaXaaXaaAG-OH); 200 μM acyl acceptor (H-XaaXaaXaaAK(DNP)-OH); 1-5 μM enzyme variant; 100 mM HEPES pH7.8, 100 mM NaCl, 10 mM CaCl2, 0.1 mM ZnCl2, T=30° C. UPLC analysis: Waters Acquity Ultra Performance LC, C18-column, gradient 5-60% acetonitrile, 5 min, detection at 360 nm; (k_(cat,AL)^app): apparent turnover rate for the aminolysis reaction. Amino acid variation of acyl donor/acyl acceptor pairs at Xaa-positions are indicated at the y-axis, e.g. YRAH relates to the acyl donor Bz-[…]-OH with the corresponding acyl acceptor H-RAHAK(DNP)-OH.
# FIG. 4: Substrate specificity data of chosen variants identified during phage-display selection and screening out of Trypsiligase II-library. […]
# Model transamidation reactions were performed in a solution containing 15 to 250 μM acyl donor, 2 eq. of the corresponding acyl acceptor, varying concentrations of trypsin variant, 100 mM HEPES/NaOH pH 7.8, ±0.1 mM ZnC12, 100 mM NaCl, 10 mM CaCl2) at 30° C. […] The composition of the reaction mixture was analyzed by UPCL with method I or II, depending on the absence (method 1) or presence (method II) of a 2,4-dinitrophenyl group within the acyl acceptor (see example 1). […]
# [5] = low substrate concentration (15 μM)
molecule,measurement,setting,value
Trypsiligase II (trypsin variant Y39H/Y59H/K60E/D189K) (protein) IVGGYTCQENSVPYQVSLNSGHHFCGGSLINDQWVVSAAHCHESRIQVRLGEHNINVLEGNEQFVNAAKIIKHPNFDRKTLNNDIMLIKLSSPVKLNARVATVALPSSCAPAGTQCLISGWGNTLSSGVNEPDLLQCLDAPLLPQADCEASYPGKITDNMVCVGFLEGGKKSCQGDSGGPVVCNGELQGIVSWGYGCALPDNPGVYTKVCNYVDWIQDTIAAN,product yield (%),"[1]; [Substrate] 15 μM Bz-PGGYRAHAG-OH, 30 μM H-RAHAK-OH",3% and 3.2%
same,"kcat, AL^app (mkat/mol)",[1]; [Substrate] 15 μM,0.33 mkat/mol
same,"kcat, AL^app/kcat, HL^app",[1]; [Substrate] 15 μM,0.1
same,"kcat, HL^app (mkat/mol)",[1]; [Substrate] 15 μM,2.84 mkat/mol
same,product yield (%),"[1]; [Substrate] 250 μM Bz-PGGYRAHAG-OH, 500 μM H-RAHAK-OH",17% and 17.3%
same,"kcat, AL^app (mkat/mol)",[1]; [Substrate] 250 μM,14.40 mkat/mol
same,"kcat, AL^app/kcat, HL^app",[1]; [Substrate] 250 μM,0.9
same,"kcat, HL^app (mkat/mol)",[1]; [Substrate] 250 μM,16.00 mkat/mol
same,turnover rate of hydrolysis relative to aminolysis,[1]; substrate concentration 15 μM,tenfold higher turnover rate
same,product yield (%),[2],18.1%
"A2C8: Trypsiligase II + H40F, A55A, R96E, K97D, L99F, N143E, E151Y, S190V, Q192A, S214G, G219Q, A221T (protein) IVGGYTCQENSVPYQVSLNSGHFFCGGSLINDQWVVSAAHCHESRIQVRLGEHNINVLEGNEQFVNAAKIIKHPNFDEDTFNNDIMLIKLSSPVKLNARVATVALPSSCAPAGTQCLISGWGETLSSGVNYPDLLQCLDAPLLPQADCEASYPGKITDNMVCVGFLEGGKKVCAGDSGGPVVCNGELQGIVGWGYQCTLPDNPGVYTKVCNYVDWIQDTIAAN",product yield (%),"[3]; [Substrate] 15 μM Bz-PGGYRKKAG-OH, 30 μM H-RKKAK-OH",46% and 46.2%
same,"kcat, AL^app (mkat/mol)",[3]; [Substrate] 15 μM,10.68 mkat/mol
same,"kcat, AL^app/kcat, HL^app",[3]; [Substrate] 15 μM,7.4
same,"kcat, HL^app (mkat/mol)",[3]; [Substrate] 15 μM,1.44 mkat/mol
same,product yield (%),"[3]; [Substrate] 250 μM Bz-PGGYRKKAG-OH, 500 μM H-RKKAK-OH",64.9%
same,"kcat, AL^app (mkat/mol)",[3]; [Substrate] 250 μM,71.61 mkat/mol
same,"kcat, AL^app/kcat, HL^app",[3]; [Substrate] 250 μM,70 and 70.9
same,"kcat, HL^app (mkat/mol)",[3]; [Substrate] 250 μM,1.01 mkat/mol
same,apparent turnover rate of aminolysis relative to hydrolysis,[3]; [5],sevenfold higher apparent turnover rate
same,fold higher product yield than the native Trypsiligase II,[3]; [5],14
same,acceptance of LRKH as acyl donor,[4],accepts LRKH as acyl donor
same,substrate sequence with highest activity,[4],highest activity for YRKK substrate sequence
